In patent US6872703B2, “Insulin receptor-related receptor binding protein” (Ajinomoto Co., Inc., priority 2000, dated 2005):

T1: insulin receptor-related receptor (IRR), IRR-Fc fusion protein (extracellular region of mouse IRR) (Mus musculus, UniProt Q9WTL4)
T1 construct: with an extracellular region of mouse IRR (1-920th residues); made in house; host or cells: CHO cells
T1 sequence (Q9WTL4 27-920): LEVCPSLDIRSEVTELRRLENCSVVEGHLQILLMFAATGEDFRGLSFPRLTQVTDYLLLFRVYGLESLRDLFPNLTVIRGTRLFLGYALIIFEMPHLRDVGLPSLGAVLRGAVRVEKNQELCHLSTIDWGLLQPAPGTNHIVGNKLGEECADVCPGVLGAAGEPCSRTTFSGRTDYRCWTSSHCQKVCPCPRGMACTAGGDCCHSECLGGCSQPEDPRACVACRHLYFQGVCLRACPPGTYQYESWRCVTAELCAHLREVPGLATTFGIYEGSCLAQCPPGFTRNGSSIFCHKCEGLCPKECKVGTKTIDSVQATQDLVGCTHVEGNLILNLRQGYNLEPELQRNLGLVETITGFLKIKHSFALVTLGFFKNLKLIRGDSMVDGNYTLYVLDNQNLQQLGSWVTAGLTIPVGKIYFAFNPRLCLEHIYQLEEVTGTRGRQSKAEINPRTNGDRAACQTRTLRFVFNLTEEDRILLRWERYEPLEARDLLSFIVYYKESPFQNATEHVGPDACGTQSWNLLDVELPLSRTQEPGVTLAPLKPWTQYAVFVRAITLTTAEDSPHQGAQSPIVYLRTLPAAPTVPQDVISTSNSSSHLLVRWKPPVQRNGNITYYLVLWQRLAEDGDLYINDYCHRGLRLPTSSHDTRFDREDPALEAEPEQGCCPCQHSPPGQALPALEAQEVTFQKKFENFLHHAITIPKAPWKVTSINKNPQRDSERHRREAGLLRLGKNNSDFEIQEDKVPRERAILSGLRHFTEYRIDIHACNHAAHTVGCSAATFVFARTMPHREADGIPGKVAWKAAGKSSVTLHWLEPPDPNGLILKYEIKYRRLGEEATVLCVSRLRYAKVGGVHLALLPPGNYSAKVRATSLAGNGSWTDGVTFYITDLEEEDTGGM


Columns and labels:
[1] = target: T1, insulin receptor-related receptor (IRR), IRR-Fc fusion protein (extracellular region of mouse IRR); test: IRR binding activity by surface plasmon resonance (BIACORE 2000), IRR-Fc binding value minus IR-Fc binding value; details: about 1/10 amount of each re-purified specimen (about 10 μg) lyophilized and dissolved in 200 μl of buffer; IR-Fc binding value subtracted from IRR-Fc binding value
Description: Determination of active fractions in the purification of the IRR ligand from a supernatant of cells expressing the IRR ligand including the rat C6 glioma cells or identification of granulins/epithelins or mutants thereof as IRR ligands can be carried out by measuring activity for binding to IRR in a sample. The binding activity to IRR of a sample specimen can be measured by using a surface plasmon resonance (SPR) measuring apparatus, for example, BIACORE (produced by Biacore). Specifically, for example, the extracellular domain of IRR is prepared as a soluble protein and immobilized on a surface of a BIACORE sensor chip. A sample specimen is sent onto the surface of the sensor chip via a micro flow system at a constant flow rate. If a molecule binding to IRR (IRR ligand) is contained in the sample specimen, the mass of the surface sensor chip is increased due to binding between IRR and IRR ligand molecules, and a shift of the SPR signal in proportion to the binding quantity can be detected as a change in the resonance unit (RU). […] When, for example, an insulin receptor (IR) protein is used as a protein other than IRR, IRR-binding activity can be measured more precisely. […]

IRR = IRR (Homo sapiens, UniProt P14616); details: literature report; cited from earlier work
Sequence of IRR (P14616 27-742 limits assumed, species assumed): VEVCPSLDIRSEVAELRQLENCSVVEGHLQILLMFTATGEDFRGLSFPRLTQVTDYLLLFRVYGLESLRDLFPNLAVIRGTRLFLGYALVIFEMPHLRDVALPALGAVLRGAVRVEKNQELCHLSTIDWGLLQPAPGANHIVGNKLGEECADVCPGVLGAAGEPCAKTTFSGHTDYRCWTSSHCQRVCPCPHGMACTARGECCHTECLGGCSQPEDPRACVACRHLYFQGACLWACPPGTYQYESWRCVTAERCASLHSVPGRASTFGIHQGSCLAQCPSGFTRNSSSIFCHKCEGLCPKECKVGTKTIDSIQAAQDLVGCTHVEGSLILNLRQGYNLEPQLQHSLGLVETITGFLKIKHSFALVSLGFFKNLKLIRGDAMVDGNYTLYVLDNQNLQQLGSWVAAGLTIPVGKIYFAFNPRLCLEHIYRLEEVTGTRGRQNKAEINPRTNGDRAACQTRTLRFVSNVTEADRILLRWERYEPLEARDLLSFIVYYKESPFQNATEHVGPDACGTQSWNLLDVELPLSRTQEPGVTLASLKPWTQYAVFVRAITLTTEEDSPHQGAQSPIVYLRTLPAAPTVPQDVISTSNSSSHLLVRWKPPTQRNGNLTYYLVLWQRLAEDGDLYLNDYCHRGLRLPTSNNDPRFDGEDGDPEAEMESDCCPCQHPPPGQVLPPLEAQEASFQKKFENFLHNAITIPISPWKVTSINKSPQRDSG
Sequence of IRR (P14616 747-1297 limits assumed, species assumed): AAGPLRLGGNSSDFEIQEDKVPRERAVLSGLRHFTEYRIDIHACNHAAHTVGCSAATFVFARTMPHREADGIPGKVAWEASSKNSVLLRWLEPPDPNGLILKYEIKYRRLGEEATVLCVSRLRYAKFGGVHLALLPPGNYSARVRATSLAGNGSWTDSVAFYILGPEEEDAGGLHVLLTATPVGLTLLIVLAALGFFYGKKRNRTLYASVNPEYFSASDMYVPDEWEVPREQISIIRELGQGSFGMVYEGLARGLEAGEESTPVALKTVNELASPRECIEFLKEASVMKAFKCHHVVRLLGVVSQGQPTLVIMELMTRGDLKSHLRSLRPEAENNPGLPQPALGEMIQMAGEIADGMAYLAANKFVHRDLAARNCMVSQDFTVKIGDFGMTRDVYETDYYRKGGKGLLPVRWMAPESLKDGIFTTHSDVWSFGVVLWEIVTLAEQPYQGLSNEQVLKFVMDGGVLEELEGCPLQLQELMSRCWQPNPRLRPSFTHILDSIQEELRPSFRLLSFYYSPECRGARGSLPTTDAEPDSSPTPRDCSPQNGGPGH

Row | binding activity (IRR-specific binding value, SPR resonance units) [1] | Molecule | binding to IRR (IRR)
1 | 21 RU | Peak 2: Re-purified IRR ligand fraction from rat C6 cell supernatant; protein of molecular weight 6135, SEQ ID NO: 4 (epithelin/granulin) (IGCDQHTSCPVGQTCCPSLKGSWACCQLPHAVCCEDRQHCCPAGYTCNVKARTCEKQ; listed as Mus musculus) | 
2 |  | insulin | cannot bind to IRR
3 |  | insulin-like growth factor (IGF)-1 [IGF-1] | cannot bind to IRR
4 | 13 RU | Peak 1: Re-purified IRR ligand fraction from rat C6 cell supernatant; proteins of molecular weights 6250 and 6321, SEQ ID NOS: 5 and 6 (epithelin/granulin) (protein, listed as Mus musculus) chain 1: DIGCDQHTSCPVGQTCCPSLKGSWACCQLPHAVCCEDRQHCCPAGYTCNVKARTCEKN chain 2: DIGCDQHTSCPVGQTCCPSLKGSWACCQLPHAVCCEDTQHCCPAGYTCNVKARTCEKDA | 
